Laboratory results reported in patent publication US20200123268A1 (UNIVERSIT DEGLI STUDI MAGNA GRAECIA CATANZARO, published 2020).

Tests used:
[1] = target: T1, CD43 #5 (truncated CD43, aa 91-400), expressed in HEK293T cells (human, UniProt P16150 91-400); assay: western blot of lysates of transfected HEK293T cells
T1 construct: also called CD43 Clone #5; not shown: His tag from the vector pLenti-CMV-(insert)-Histag-GFP-2A-Puro
T1 sequence: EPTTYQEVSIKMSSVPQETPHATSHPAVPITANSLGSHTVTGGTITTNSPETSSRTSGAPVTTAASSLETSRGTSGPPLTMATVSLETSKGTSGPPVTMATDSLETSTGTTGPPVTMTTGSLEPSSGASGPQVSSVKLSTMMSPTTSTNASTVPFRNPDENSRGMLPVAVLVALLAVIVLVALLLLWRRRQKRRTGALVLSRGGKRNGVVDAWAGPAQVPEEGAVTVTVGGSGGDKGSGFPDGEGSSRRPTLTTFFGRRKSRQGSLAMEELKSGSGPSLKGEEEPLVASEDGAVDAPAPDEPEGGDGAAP

[2] = target: T2, CD43 #6 (CD43 with deletion of aa 64 to 78), expressed in HEK293T cells (human, UniProt P16150 20-400); assay: as above
T2 construct: also called CD43 Clone #6; not shown: His tag from the vector pLenti-CMV-(insert)-Histag-GFP-2A-Puro
T2 sequence: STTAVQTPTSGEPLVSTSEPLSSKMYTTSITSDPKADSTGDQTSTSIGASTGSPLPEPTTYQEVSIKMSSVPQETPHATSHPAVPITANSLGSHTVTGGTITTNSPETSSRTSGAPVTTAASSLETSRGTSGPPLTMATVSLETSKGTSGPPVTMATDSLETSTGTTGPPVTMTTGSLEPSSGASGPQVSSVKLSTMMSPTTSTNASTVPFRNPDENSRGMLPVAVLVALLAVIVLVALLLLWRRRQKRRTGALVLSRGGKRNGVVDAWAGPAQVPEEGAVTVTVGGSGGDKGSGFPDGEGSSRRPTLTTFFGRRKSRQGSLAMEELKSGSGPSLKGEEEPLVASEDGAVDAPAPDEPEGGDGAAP

[3] = target: T3, human CD43, endogenous, on primary cells and cell lines that carry the UMG1 epitope (human, UniProt P16150 20-400, native glycosylation of the cell concerned); assay: competition flow cytometry on CEM cells against 1 ug/ml h-UMG1-PE
T3 construct: also called UMG1 antigen; the target
T3 sequence: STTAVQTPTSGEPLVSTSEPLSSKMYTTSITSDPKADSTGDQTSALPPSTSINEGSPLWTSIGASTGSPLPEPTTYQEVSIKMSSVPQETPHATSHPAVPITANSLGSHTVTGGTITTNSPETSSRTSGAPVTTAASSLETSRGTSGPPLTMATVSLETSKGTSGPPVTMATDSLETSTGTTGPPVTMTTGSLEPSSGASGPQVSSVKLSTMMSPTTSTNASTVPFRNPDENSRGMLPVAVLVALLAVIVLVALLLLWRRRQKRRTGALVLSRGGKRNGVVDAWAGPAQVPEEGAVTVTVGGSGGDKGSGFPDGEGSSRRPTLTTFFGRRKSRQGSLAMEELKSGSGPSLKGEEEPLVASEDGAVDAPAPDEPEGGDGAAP
Procedure: (§1) Approximately, 500,000 cells were collected and stained for each test. Cell were analyzed and measured with FACS Canto (Becton Dickinson) and analyzed by DIVA software (BD FACSDiva™ software). For each measurement 10,000 events were gated using the DIVA software. Each experiment was performed in triplicate.

[4] = target: T3, human CD43, endogenous, on primary …; assay: competition flow cytometry on HPB-ALL cells against 1 ug/ml h-UMG1-PE
Procedure: as §1

[5] = target: T4, recombinant human CD43 extracellular portion (aa 20-253) produced in E. coli (human, UniProt P16150 20-253); assay: SPRi (PlexArray HT), antibody printed on the chip, CD43 aa 20-253 from E. coli as analyte, 25 C
T4 construct: Made in E. coli, without mammalian glycosylation; No tags are stated; also called aglycosylated extracellular portion of CD43; unglycosylated-CD43 protein
T4 sequence: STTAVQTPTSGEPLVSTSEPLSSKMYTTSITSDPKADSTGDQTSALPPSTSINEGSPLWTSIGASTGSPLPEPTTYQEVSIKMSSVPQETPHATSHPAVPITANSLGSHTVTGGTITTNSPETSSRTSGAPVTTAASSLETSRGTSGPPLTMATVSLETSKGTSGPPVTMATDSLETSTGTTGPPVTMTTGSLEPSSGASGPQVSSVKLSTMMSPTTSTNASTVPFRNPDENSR
Procedure: (§2) Antibodies dissolved in water were manually printed onto the bare gold-coated (thickness 47 nm) PlexArray Nanocapture Sensor Chip (Plexera Bioscience, Seattle, Wash., US) at 40% humidity. Different concentration of the analytes (CD43) were tested for affinity. Each concentration was printed in replicate, and each spot contained 0.2 uL of sample solution. The chip was incubated in 80% humidity at 4° C. for overnight, and rinsed with 10×PBST for 10 min, 1×PBST for 10 min, and deionized water twice for 10 min. The chip was then blocked with 5% (w/v) non-fat milk in water overnight, and washed with 10×PBST for 10 min, lx PBST for 10 min, and deionized water twice for 10 min before being dried under a stream of nitrogen prior to use. SPRi measurements were performed with PlexAray HT (Plexera Bioscience, Seattle, Wash., US). Collimated light (660 nm) passes through the coupling prism, reflects off the SPR-active gold surface, and is received by the CCD camera. […] The signal changes after binding and washing (in AU) are recorded as the assay value.
(§3) Selected protein-grafted regions in the SPR images were analyzed, and the average reflectivity variations of the chosen areas were plotted as a function of time. Real-time binding signals were recorded and analyzed by Data Analysis Module (DAM, Plexera Bioscience, Seattle, Wash., US). […]

[6] = target: T4, recombinant human CD43 extracellular …; assay: SPRi (PlexArray HT), antibody printed on the chip, Recombinant Human CD-43 (AA20-253) as analyte at 2.84 to 45.6 nM, 25 C
Procedure: as §2, §3

B1: h-UMG1 (humanized UMG1 antibody H3-L4) (antibody, human IgG1, kappa, V domains shown)
VH: EVQLVESGGGLVQPGGSLRLSCVASGFTFSSFGMHWVRQAPGKGLEWVAYISSGSGNFYYVDTVKGRFTISRDNAKNSLYLQMNSLRAEDTAVYYCARSTYYHGSRGAMDYWGQGTLVTVSS
VL: QVVMTQSPAFLSVTPGEKVTITCSASSSVSSMYWYQLKPDQAPKLLIYDTSKMASGVPIRFSGSGSGTDFTFTVSSVEAEDAATYYCQQWSSYPPITFGGGTKVEIKR
notes: The full chains are given as Human Heavy Chain (VH3) and Human Light Chain (VL4); IgG1; also called unconjugated h-UMG1
binding result [1]: no binding (tested: 1:500 dilution)
binding result [2]: no binding (tested: 1:500 dilution)
IC50 (read off the curve) [3]: ~0.04 µg/mL
IC50 (read off the curve) [4]: ~0.4 µg/mL
Kd [5]: 99.4 nM
koff [6]: 0.000511 s⁻¹
kon [6]: 5140 M⁻¹ s⁻¹
